The record followed here is ChEMBL document CHEMBL1153321, “Approaches to the simultaneous inactivation of metallo- and serine-beta-lactamases” (Bioorg Med Chem Lett, 2009).

Broadly, the Km is the concentration of substrate that gives half-maximal velocity. As usually defined, the kcat is the maximal rate divided by the concentration of active sites.

Common to all, as to settings: Enterobacter cloacae
Substrate in series [1]: CC1=C(C(=O)O)N2C(=O)/C(=N/O)[C@H]2S(=O)(=O)C1
Substrate in series [2]: CC(=O)OCC1=C(C(=O)O)N2C(=O)[C@@H](N)[C@H]2SC1
Substrate in series [3]: CC(=O)OCC1=C(C(=O)O)N2C(=O)[C@@H](N(O)C(=O)Cc3ccccc3)[C@H]2SC1
Substrate in series [4]: CC(=O)OCC1=C(C(=O)O)N2C(=O)/C(=N/O)[C@H]2SC1
Substrate in series [5]: CC(=O)OCC1=C(C(=O)O)N2C(=O)/C(=N/O)[C@H]2S(=O)(=O)C1
Substrate in series [6]: CC(=O)OCC1=C(C(=O)O)N2C(=O)[C@@H](NC=O)[C@H]2SC1
Substrate in series [7]: CC(=O)OCC1=C(C(=O)O)N2C(=O)[C@@H](NO)[C@H]2SC1
Substrate in series [8]: CC(=O)OCC1=C(C(=O)O)N2C(=O)[C@@H](N(O)C=O)[C@H]2SC1
Substrate in series [9]: CC(=O)OCC1=C(C(=O)O)N2C(=O)[C@@H](NC(=O)Cc3cccs3)[C@H]2SC1

B1: Beta-lactamase (Enterobacter cloacae), P05364 (protein)
chain: MMRKSLCCALLLGISCSALATPVSEKQLAEVVANTITPLMKAQSVPGMAVAVIYQGKPHYYTFGKADIAANKPVTPQTLFELGSISKTFTGVLGGDAIARGEISLDDAVTRYWPQLTGKQWQGIRMLDLATYTAGGLPLQVPDEVTDNASLLRFYQNWQPQWKPGTTRLYANASIGLFGALAVKPSGMPYEQAMTTRVLKPLKLDHTWINVPKAEEAHYAWGYRDGKAVRVSPGMLDAQAYGVKTNVQDMANWVMANMAPENVADASLKQGIALAQSRYWRIGSMYQGLGWEMLNWPVEANTVVEGSDSKVALAPLPVAEVNPPAPPVKASWVHKTGSTGGFGSYVAFIPEKQIGIVMLANTSYPNPARVEAAYHILEALQ
Turning to B1, the Michaelis-Menten constant (Km) in series [1] was 4.5 µM; in series [2], 290 µM; in [3], 5 µM; in series [4], 366 µM; in series [5] it was more than 200 µM; in [6] it was 315 µM. Also, the results for the Km in [7], in series [8] and in series [9] were 1450 µM, 240 µM and 15.4 µM, respectively. Besides, the kcat was 0.54 s⁻¹ in series [1]; 0.46 s⁻¹ in series [2]; 0.49 s⁻¹ in series [3]; 2.56 s⁻¹ in series [4]; 1180 s⁻¹ in series [6]; 1.6 s⁻¹ in series [7]. The kcat in series [8] is 0.32 s⁻¹; in series [9], 690 s⁻¹.
